{
  "source": "patent US20090130105A1",
  "about": "(Biogen, published 2009)",
  "data": [
    {"target": "T1, human IGF-1R(1-903)-Fc (human, UniProt P08069 31-933)", "T1 construct": "also called hIGF-1R-Fc; SDWT; not shown: human IgG1 Fc, C-terminal tag", "T1 sequence (P08069 31-933)": "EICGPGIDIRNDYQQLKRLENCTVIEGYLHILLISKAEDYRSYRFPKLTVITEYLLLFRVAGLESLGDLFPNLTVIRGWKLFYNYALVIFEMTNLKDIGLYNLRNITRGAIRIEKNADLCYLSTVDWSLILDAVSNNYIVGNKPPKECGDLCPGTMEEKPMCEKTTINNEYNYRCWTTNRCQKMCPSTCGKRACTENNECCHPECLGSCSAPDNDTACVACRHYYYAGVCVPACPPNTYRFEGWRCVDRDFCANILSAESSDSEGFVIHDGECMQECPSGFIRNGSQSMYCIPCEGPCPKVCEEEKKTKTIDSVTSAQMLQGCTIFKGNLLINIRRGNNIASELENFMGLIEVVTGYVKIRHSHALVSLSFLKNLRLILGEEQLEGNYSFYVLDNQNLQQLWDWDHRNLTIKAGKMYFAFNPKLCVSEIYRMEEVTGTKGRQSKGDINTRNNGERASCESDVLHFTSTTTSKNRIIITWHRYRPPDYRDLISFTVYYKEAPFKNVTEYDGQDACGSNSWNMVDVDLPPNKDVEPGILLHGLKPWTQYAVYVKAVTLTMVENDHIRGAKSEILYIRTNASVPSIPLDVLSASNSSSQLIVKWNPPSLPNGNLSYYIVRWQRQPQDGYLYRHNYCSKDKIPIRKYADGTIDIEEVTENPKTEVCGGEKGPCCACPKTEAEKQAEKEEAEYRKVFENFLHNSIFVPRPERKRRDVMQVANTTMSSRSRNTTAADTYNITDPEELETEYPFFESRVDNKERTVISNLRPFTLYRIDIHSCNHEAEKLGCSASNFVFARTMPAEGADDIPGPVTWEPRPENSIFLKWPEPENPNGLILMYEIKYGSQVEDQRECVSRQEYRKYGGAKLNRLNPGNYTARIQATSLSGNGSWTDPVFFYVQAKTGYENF", "assay": "biolayer interferometry (Octet), IGF-1R Fc on Protein A sensors, scFv culture supernatant", "design": "unit not given here", "excerpt": "Individual transformed colonies were picked into deep-well 96 well dishes and processed for screening as described above. […] For off-rate analyses IGF-1R Fc was immobilized onto the surface of Protein A biosensors. […] ScFvs were allowed to bind to immobilized IGF-1R Fc for 300-seconds. Off-rate was subsequently assayed for 600 seconds.", "values": [
      {"binder": "conventional C06 (VL/GS3/VH) scFv (pXWU092) (scFv, also called WT C06 scFv) scFv: DIQMTQSPLSLSASVGDRVTITCQASRDIRNYLNWYQQKPGKAPKLLIYDASSLQTGVPSRFGGSGSGTDFSFTIGSLQPEDIATYYCQQFDSLPHTFGQGTKLEIKGGGGSGGGGSGGGGSEVQLLESGGGLVQPGGSLRLSCAASGFTFSIYRMQWVRQAPGKGLEWVSGISPSGGTTWYADSVKGRFTISRDNSKNTLYLQMNSLRAEDTAVYYCARWSGGSGYAFDIWGQGTMVTVSS", "Kd (1/sec), off-rate as tabulated (XWU092 = 1.00)": 1},
      {"binder": "MJF045, stabilized C06 (I83E) scFv (scFv, Variant of pXWU092 with VL I83E (Kabat); also called C06 VL I83E scFv) scFv: DIQMTQSPLSLSASVGDRVTITCQASRDIRNYLNWYQQKPGKAPKLLIYDASSLQTGVPSRFGGSGSGTDFSFTIGSLQPEDEATYYCQQFDSLPHTFGQGTKLEIKGGGGSGGGGSGGGGSEVQLLESGGGLVQPGGSLRLSCAASGFTFSIYRMQWVRQAPGKGLEWVSGISPSGGTTWYADSVKGRFTISRDNSKNTLYLQMNSLRAEDTAVYYCARWSGGSGYAFDIWGQGTMVTVSS", "Kd (1/sec), off-rate as tabulated (XWU092 = 1.00)": 1.47},
      {"binder": "MJF018, C06 (VL/GS3/VH) scFv with VL V15N (scFv, Kabat positions) scFv: DIQMTQSPLSLSASNGDRVTITCQASRDIRNYLNWYQQKPGKAPKLLIYDASSLQTGVPSRFGGSGSGTDFSFTIGSLQPEDIATYYCQQFDSLPHTFGQGTKLEIKGGGGSGGGGSGGGGSEVQLLESGGGLVQPGGSLRLSCAASGFTFSIYRMQWVRQAPGKGLEWVSGISPSGGTTWYADSVKGRFTISRDNSKNTLYLQMNSLRAEDTAVYYCARWSGGSGYAFDIWGQGTMVTVSSDDDKSFLEQKLISEEDLNSAVDHHHHHH", "Kd (1/sec), off-rate as tabulated (XWU092 = 1.00)": 1.16},
      {"binder": "MJF029, C06 (VL/GS3/VH) scFv with VL T20R, R30Y (scFv, Kabat positions) scFv: DIQMTQSPLSLSASVGDRVRITCQASRDIYNYLNWYQQKPGKAPKLLIYDASSLQTGVPSRFGGSGSGTDFSFTIGSLQPEDIATYYCQQFDSLPHTFGQGTKLEIKGGGGSGGGGSGGGGSEVQLLESGGGLVQPGGSLRLSCAASGFTFSIYRMQWVRQAPGKGLEWVSGISPSGGTTWYADSVKGRFTISRDNSKNTLYLQMNSLRAEDTAVYYCARWSGGSGYAFDIWGQGTMVTVSSDDDKSFLEQKLISEEDLNSAVDHHHHHH", "Kd (1/sec), off-rate as tabulated (XWU092 = 1.00)": 0.68},
      {"binder": "MJF017, C06 (VL/GS3/VH) scFv with VL T74S (scFv, Kabat positions) scFv: DIQMTQSPLSLSASVGDRVTITCQASRDIRNYLNWYQQKPGKAPKLLIYDASSLQTGVPSRFGGSGSGTDFSFSIGSLQPEDIATYYCQQFDSLPHTFGQGTKLEIKGGGGSGGGGSGGGGSEVQLLESGGGLVQPGGSLRLSCAASGFTFSIYRMQWVRQAPGKGLEWVSGISPSGGTTWYADSVKGRFTISRDNSKNTLYLQMNSLRAEDTAVYYCARWSGGSGYAFDIWGQGTMVTVSSDDDKSFLEQKLISEEDLNSAVDHHHHHH", "Kd (1/sec), off-rate as tabulated (XWU092 = 1.00)": 1.02},
      {"binder": "MJF027, C06 (VL/GS3/VH) scFv with VL Q24K (scFv, Kabat positions) scFv: DIQMTQSPLSLSASVGDRVTITCKASRDIRNYLNWYQQKPGKAPKLLIYDASSLQTGVPSRFGGSGSGTDFSFTIGSLQPEDIATYYCQQFDSLPHTFGQGTKLEIKGGGGSGGGGSGGGGSEVQLLESGGGLVQPGGSLRLSCAASGFTFSIYRMQWVRQAPGKGLEWVSGISPSGGTTWYADSVKGRFTISRDNSKNTLYLQMNSLRAEDTAVYYCARWSGGSGYAFDIWGQGTMVTVSSDDDKSFLEQKLISEEDLNSAVDHHHHHH", "Kd (1/sec), off-rate as tabulated (XWU092 = 1.00)": 1.12},
      {"binder": "MJF022, C06 (VL/GS3/VH) scFv with VL V15R (scFv, Kabat positions) scFv: DIQMTQSPLSLSASRGDRVTITCQASRDIRNYLNWYQQKPGKAPKLLIYDASSLQTGVPSRFGGSGSGTDFSFTIGSLQPEDIATYYCQQFDSLPHTFGQGTKLEIKGGGGSGGGGSGGGGSEVQLLESGGGLVQPGGSLRLSCAASGFTFSIYRMQWVRQAPGKGLEWVSGISPSGGTTWYADSVKGRFTISRDNSKNTLYLQMNSLRAEDTAVYYCARWSGGSGYAFDIWGQGTMVTVSSDDDKSFLEQKLISEEDLNSAVDHHHHHH", "Kd (1/sec), off-rate as tabulated (XWU092 = 1.00)": 0.76},
      {"binder": "MJF014, C06 (VL/GS3/VH) scFv with VL M4L (scFv, Kabat positions) scFv: DIQLTQSPLSLSASVGDRVTITCQASRDIRNYLNWYQQKPGKAPKLLIYDASSLQTGVPSRFGGSGSGTDFSFTIGSLQPEDIATYYCQQFDSLPHTFGQGTKLEIKGGGGSGGGGSGGGGSEVQLLESGGGLVQPGGSLRLSCAASGFTFSIYRMQWVRQAPGKGLEWVSGISPSGGTTWYADSVKGRFTISRDNSKNTLYLQMNSLRAEDTAVYYCARWSGGSGYAFDIWGQGTMVTVSSDDDKSFLEQKLISEEDLNSAVDHHHHHH", "Kd (1/sec), off-rate as tabulated (XWU092 = 1.00)": 0.86},
      {"binder": "MJF033, C06 (VL/GS3/VH) scFv with VL T20R, R30N; VH S21E (scFv, name in Kabat numbering, Kabat positions) scFv: DIQMTQSPLSLSASVGDRVRITCQASRDINNYLNWYQQKPGKAPKLLIYDASSLQTGVPSRFGGSGSGTDFSFTIGSLQPEDIATYYCQQFDSLPHTFGQGTKLEIKGGGGSGGGGSGGGGSEVQLLESGGGLVQPGGSLRLECAASGFTFSIYRMQWVRQAPGKGLEWVSGISPSGGTTWYADSVKGRFTISRDNSKNTLYLQMNSLRAEDTAVYYCARWSGGSGYAFDIWGQGTMVTVSSDDDKSFLEQKLISEEDLNSAVDHHHHHH", "Kd (1/sec), off-rate as tabulated (XWU092 = 1.00)": 0.78},
      {"binder": "MJF026, C06 (VL/GS3/VH) scFv with VL V15S; VH T110V (scFv, name in Kabat numbering, Kabat positions) scFv: DIQMTQSPLSLSASSGDRVTITCQASRDIRNYLNWYQQKPGKAPKLLIYDASSLQTGVPSRFGGSGSGTDFSFTIGSLQPEDIATYYCQQFDSLPHTFGQGTKLEIKGGGGSGGGGSGGGGSEVQLLESGGGLVQPGGSLRLSCAASGFTFSIYRMQWVRQAPGKGLEWVSGISPSGGTTWYADSVKGRFTISRDNSKNTLYLQMNSLRAEDTAVYYCARWSGGSGYAFDIWGQGTMVVVSSDDDKSFLEQKLISEEDLNSAVDHHHHHH", "Kd (1/sec), off-rate as tabulated (XWU092 = 1.00)": 0.99},
      {"binder": "MJF015, C06 (VL/GS3/VH) scFv with VH W47F (scFv, name in Kabat numbering, Kabat positions) scFv: DIQMTQSPLSLSASVGDRVTITCQASRDIRNYLNWYQQKPGKAPKLLIYDASSLQTGVPSRFGGSGSGTDFSFTIGSLQPEDIATYYCQQFDSLPHTFGQGTKLEIKGGGGSGGGGSGGGGSEVQLLESGGGLVQPGGSLRLSCAASGFTFSIYRMQWVRQAPGKGLEFVSGISPSGGTTWYADSVKGRFTISRDNSKNTLYLQMNSLRAEDTAVYYCARWSGGSGYAFDIWGQGTMVTVSSDDDKSFLEQKLISEEDLNSAVDHHHHHH", "Kd (1/sec), off-rate as tabulated (XWU092 = 1.00)": 1.37},
      {"binder": "MJF020, C06 (VL/GS3/VH) scFv with VL V15E (scFv, Kabat positions) scFv: DIQMTQSPLSLSASEGDRVTITCQASRDIRNYLNWYQQKPGKAPKLLIYDASSLQTGVPSRFGGSGSGTDFSFTIGSLQPEDIATYYCQQFDSLPHTFGQGTKLEIKGGGGSGGGGSGGGGSEVQLLESGGGLVQPGGSLRLSCAASGFTFSIYRMQWVRQAPGKGLEWVSGISPSGGTTWYADSVKGRFTISRDNSKNTLYLQMNSLRAEDTAVYYCARWSGGSGYAFDIWGQGTMVTVSSDDDKSFLEQKLISEEDLNSAVDHHHHHH", "Kd (1/sec), off-rate as tabulated (XWU092 = 1.00)": 0.76},
      {"binder": "MJF025, C06 (VL/GS3/VH) scFv with VL V15P (scFv, Kabat positions) scFv: DIQMTQSPLSLSASPGDRVTITCQASRDIRNYLNWYQQKPGKAPKLLIYDASSLQTGVPSRFGGSGSGTDFSFTIGSLQPEDIATYYCQQFDSLPHTFGQGTKLEIKGGGGSGGGGSGGGGSEVQLLESGGGLVQPGGSLRLSCAASGFTFSIYRMQWVRQAPGKGLEWVSGISPSGGTTWYADSVKGRFTISRDNSKNTLYLQMNSLRAEDTAVYYCARWSGGSGYAFDIWGQGTMVTVSSDDDKSFLEQKLISEEDLNSAVDHHHHHH", "Kd (1/sec), off-rate as tabulated (XWU092 = 1.00)": 1.18},
      {"binder": "MJF016, C06 (VL/GS3/VH) scFv with VL D70E (scFv, Kabat positions) scFv: DIQMTQSPLSLSASVGDRVTITCQASRDIRNYLNWYQQKPGKAPKLLIYDASSLQTGVPSRFGGSGSGTEFSFTIGSLQPEDIATYYCQQFDSLPHTFGQGTKLEIKGGGGSGGGGSGGGGSEVQLLESGGGLVQPGGSLRLSCAASGFTFSIYRMQWVRQAPGKGLEWVSGISPSGGTTWYADSVKGRFTISRDNSKNTLYLQMNSLRAEDTAVYYCARWSGGSGYAFDIWGQGTMVTVSSDDDKSFLEQKLISEEDLNSAVDHHHHHH", "Kd (1/sec), off-rate as tabulated (XWU092 = 1.00)": 1.03},
      {"binder": "MJF023, C06 (VL/GS3/VH) scFv with VL L11G, V15N (scFv, Kabat positions) scFv: DIQMTQSPLSGSASNGDRVTITCQASRDIRNYLNWYQQKPGKAPKLLIYDASSLQTGVPSRFGGSGSGTDFSFTIGSLQPEDIATYYCQQFDSLPHTFGQGTKLEIKGGGGSGGGGSGGGGSEVQLLESGGGLVQPGGSLRLSCAASGFTFSIYRMQWVRQAPGKGLEWVSGISPSGGTTWYADSVKGRFTISRDNSKNTLYLQMNSLRAEDTAVYYCARWSGGSGYAFDIWGQGTMVTVSSDDDKSFLEQKLISEEDLNSAVDHHHHHH", "Kd (1/sec), off-rate as tabulated (XWU092 = 1.00)": 0.68},
      {"binder": "MJF024, C06 (VL/GS3/VH) scFv with VL V15A (scFv, Kabat positions) scFv: DIQMTQSPLSLSASAGDRVTITCQASRDIRNYLNWYQQKPGKAPKLLIYDASSLQTGVPSRFGGSGSGTDFSFTIGSLQPEDIATYYCQQFDSLPHTFGQGTKLEIKGGGGSGGGGSGGGGSEVQLLESGGGLVQPGGSLRLSCAASGFTFSIYRMQWVRQAPGKGLEWVSGISPSGGTTWYADSVKGRFTISRDNSKNTLYLQMNSLRAEDTAVYYCARWSGGSGYAFDIWGQGTMVTVSSDDDKSFLEQKLISEEDLNSAVDHHHHHH", "Kd (1/sec), off-rate as tabulated (XWU092 = 1.00)": 0.89},
      {"binder": "MJF031, C06 (VL/GS3/VH) scFv with VL R30N (scFv, Kabat positions) scFv: DIQMTQSPLSLSASVGDRVTITCQASRDINNYLNWYQQKPGKAPKLLIYDASSLQTGVPSRFGGSGSGTDFSFTIGSLQPEDIATYYCQQFDSLPHTFGQGTKLEIKGGGGSGGGGSGGGGSEVQLLESGGGLVQPGGSLRLSCAASGFTFSIYRMQWVRQAPGKGLEWVSGISPSGGTTWYADSVKGRFTISRDNSKNTLYLQMNSLRAEDTAVYYCARWSGGSGYAFDIWGQGTMVTVSSDDDKSFLEQKLISEEDLNSAVDHHHHHH", "Kd (1/sec), off-rate as tabulated (XWU092 = 1.00)": 0.59},
      {"binder": "MJF021, C06 (VL/GS3/VH) scFv with VL V15I (scFv, Kabat positions) scFv: DIQMTQSPLSLSASIGDRVTITCQASRDIRNYLNWYQQKPGKAPKLLIYDASSLQTGVPSRFGGSGSGTDFSFTIGSLQPEDIATYYCQQFDSLPHTFGQGTKLEIKGGGGSGGGGSGGGGSEVQLLESGGGLVQPGGSLRLSCAASGFTFSIYRMQWVRQAPGKGLEWVSGISPSGGTTWYADSVKGRFTISRDNSKNTLYLQMNSLRAEDTAVYYCARWSGGSGYAFDIWGQGTMVTVSSDDDKSFLEQKLISEEDLNSAVDHHHHHH", "Kd (1/sec), off-rate as tabulated (XWU092 = 1.00)": 0.81}
    ]}
  ]
}
